{"source": "paper PMC7851832", "origin": "cited, not measured here", "target": "FGFR2 (Homo sapiens) (UniProt P21802)", "sequence (P21802 22-821)": "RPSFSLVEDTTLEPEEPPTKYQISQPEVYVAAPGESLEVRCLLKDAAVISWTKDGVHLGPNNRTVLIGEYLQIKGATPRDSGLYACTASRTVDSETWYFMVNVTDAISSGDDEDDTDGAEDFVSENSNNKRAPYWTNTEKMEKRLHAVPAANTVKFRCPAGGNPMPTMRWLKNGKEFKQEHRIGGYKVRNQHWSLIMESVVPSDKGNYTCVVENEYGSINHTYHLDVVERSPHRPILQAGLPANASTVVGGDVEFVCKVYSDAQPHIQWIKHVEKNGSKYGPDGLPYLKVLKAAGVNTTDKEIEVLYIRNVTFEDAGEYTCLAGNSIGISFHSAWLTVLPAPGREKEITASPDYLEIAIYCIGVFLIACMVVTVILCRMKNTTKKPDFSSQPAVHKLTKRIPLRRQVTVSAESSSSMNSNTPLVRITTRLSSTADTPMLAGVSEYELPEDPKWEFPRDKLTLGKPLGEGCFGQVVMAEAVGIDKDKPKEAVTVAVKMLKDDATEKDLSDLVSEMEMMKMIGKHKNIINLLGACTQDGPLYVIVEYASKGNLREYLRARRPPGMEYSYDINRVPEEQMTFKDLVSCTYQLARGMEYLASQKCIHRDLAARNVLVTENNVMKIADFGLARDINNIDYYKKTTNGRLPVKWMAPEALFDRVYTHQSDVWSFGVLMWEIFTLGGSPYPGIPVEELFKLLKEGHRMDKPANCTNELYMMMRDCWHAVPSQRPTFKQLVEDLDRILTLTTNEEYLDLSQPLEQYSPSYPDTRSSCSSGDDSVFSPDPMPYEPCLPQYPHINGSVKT"}
{"substance": "FGF1 (from UniProt P05230)", "values": [{"measurement": "Kd", "value": 300, "unit": "nM"}]}
